Laboratory results as given in US20200247894A1 (Regeneron, published 2020).
Where a chain is given by its changes, count along the chain named. Blank lines part the entries; values can stand above or below the binder they belong to.

Tests used:
[1] = molecular target: T1, D2 domain of human IL2Rγ extracellular domain expressed with a C-terminal myc-myc-hexahistidine tag (human); assay: SPR, mAb captured on anti-hFc, 37 C
T1 construct: also called human IL2Rγ domain 2
T1 chain: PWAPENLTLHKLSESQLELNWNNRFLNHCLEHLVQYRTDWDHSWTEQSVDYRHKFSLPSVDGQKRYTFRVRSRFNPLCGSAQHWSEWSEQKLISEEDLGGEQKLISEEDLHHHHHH
Experimental: (§1) Equilibrium dissociation constants (KD values) for IL-2Rγ binding to purified anti-IL2Rγ monoclonal antibodies were determined using a Biacore 4000 instrument equipped with a real-time surface plasmon resonance biosensor. All binding studies were performed in 10 mM HEPES, 150 mM NaCl, 3 mM EDTA, and 0.05% v/v Surfactant Tween-20, pH 7.4 (HBS-ET) running buffer at 25° C. and 37° C. The Biacore sensor surface was first derivatized by amine coupling with a monoclonal mouse anti-human Fc antibody (GE, # BR-1008-39) to capture anti-IL2Rγ monoclonal antibodies.

[2] = molecular target: T2, D1 domain of human IL-2Rγ extracellular domain expressed with a C-terminal myc-myc-hexahistidine tag (human); assay: SPR, mAb captured on anti-hFc, 25 C
T2 construct: also called human IL2Rγ domain 1
T2 chain: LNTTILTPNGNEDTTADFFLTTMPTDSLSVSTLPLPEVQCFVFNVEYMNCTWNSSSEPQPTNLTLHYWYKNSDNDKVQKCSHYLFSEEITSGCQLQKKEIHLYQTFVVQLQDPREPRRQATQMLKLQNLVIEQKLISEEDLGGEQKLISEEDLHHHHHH
Experimental: as §1
(§2) The dissociation of monoclonal antibody bound IL2Rγ reagents were monitored for 8-10 minutes in HBS-ET running buffer. Kinetic association (kₐ) and dissociation (kd) rate constants were determined by fitting the real-time sensorgrams to a 1:1 binding model using Scrubber 2.0c curve fitting software. Binding dissociation equilibrium constants (KD) and dissociative half-lives (t_{1/2}) were calculated from the kinetic rate constants as: […]

[3] = molecular target: T1, D2 domain of human IL2Rγ extracellular …; assay: SPR, mAb captured on anti-hFc, 25 C
Experimental: as §1

[4] = molecular target: T2, D1 domain of human IL-2Rγ extracellular …; assay: SPR, mAb captured on anti-hFc, 37 C
Experimental: as §1, §2

[5] = molecular target: T3, human IL2Rγ (endogenously expressed on cells) (human, UniProt P31785 23-369); assay: cell-based or functional assay
T3 sequence (looked up): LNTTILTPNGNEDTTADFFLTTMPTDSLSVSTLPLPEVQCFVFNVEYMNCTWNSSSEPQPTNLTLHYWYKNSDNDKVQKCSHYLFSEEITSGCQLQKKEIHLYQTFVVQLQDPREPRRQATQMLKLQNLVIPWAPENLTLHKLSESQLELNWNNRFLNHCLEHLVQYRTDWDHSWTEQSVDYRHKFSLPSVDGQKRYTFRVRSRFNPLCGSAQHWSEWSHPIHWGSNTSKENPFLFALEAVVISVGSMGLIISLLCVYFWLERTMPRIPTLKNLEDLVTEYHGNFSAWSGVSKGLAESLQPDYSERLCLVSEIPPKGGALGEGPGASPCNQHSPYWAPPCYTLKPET

[6] = molecular target: T4, mouse IL-2Rγ endogenously expressed on MC/9 cells (mouse, UniProt P34902 23-369); assay: flow cytometry, 10 ug/ml antibody, MC/9 cells (endogenous mouse IL-2Rg)
T4 construct: whole, on cells
T4 sequence (looked up): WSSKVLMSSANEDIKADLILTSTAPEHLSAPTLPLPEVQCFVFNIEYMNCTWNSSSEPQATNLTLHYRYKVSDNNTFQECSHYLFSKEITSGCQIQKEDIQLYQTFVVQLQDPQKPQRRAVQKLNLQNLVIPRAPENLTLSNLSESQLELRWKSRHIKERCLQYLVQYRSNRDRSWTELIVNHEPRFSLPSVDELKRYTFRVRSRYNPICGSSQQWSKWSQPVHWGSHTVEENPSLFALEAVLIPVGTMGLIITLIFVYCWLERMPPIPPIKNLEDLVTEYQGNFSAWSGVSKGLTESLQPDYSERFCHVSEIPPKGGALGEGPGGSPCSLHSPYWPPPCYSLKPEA

[7] = molecular target: T5, human IL-2Rγ endogenously expressed on NK-92 and Jurkat cells (human, UniProt P31785 23-369); assay: flow cytometry, 10 ug/ml antibody, NK-92 cells (endogenous human IL-2Rg)
T5 construct: whole, on cells; on cells it stands with the other receptor subunits of the cell line; also called IL-2Rg; CD132
T5 sequence (looked up): T3 sequence (looked up)

[8] = molecular target: T5, human IL-2Rγ endogenously expressed on …; assay: flow cytometry, 10 ug/ml antibody, Jurkat cells (endogenous human IL-2Rg)
Experimental: For flow cytometry analyses, the cells were pre-incubated with mouse IgG at 100 μg/ml for 15 minutes at room temperature (RT) to block the binding of the antibodies to Fc receptors. […] Cells were washed, fixed using BD CytoFix™ (BD biosciences, #554655) and analyzed on an IQue® (Intellicyt®) Flow Cytometer or Accuri Flow cytometer (BD). […] The results were analyzed using ForeCyt® (IntelliCyt®) software to determine the geometric means of fluorescence (MFI) for viable cells. Binding ratios were calculated by normalizing the MFI of the test sample by the MFI of the unstained sample.

B1: H4H12924P2 (antibody, human IgG4 S228P, kappa, V domains shown)
VH: EVQLVESGGGLVQPGRSLRLSCAASGFTLEDYAMHWVRQAPGKGLEWVSGISWNRGSTGYADSVKGRFTISRDNAKNSLYLQMTSLRAEDTALYYCAKGFYSMDVWGQGTTVTVSS
VL: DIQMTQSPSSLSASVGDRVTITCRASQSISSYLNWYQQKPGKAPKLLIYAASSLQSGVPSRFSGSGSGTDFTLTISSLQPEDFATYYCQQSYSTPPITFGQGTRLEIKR
notes: human IgG4
100 nM Ag Bound [1]: 0 RU | 100 nM Ag Bound [2]: 1 RU | 100 nM Ag Bound [3]: 1 RU | binding result [3]: no binding (tested: 100 nM) | 100 nM Ag Bound [4]: -1 RU

B2: H4H12908P (antibody, human IgG4 S228P, kappa, V domains shown)
VH: EVQLVESGGRLVQPGGSLRLSCEASGFTFSNYGMTWVRQAPGKGLEWVSVISGSDNRKYYAESVKGRFTISRDNSKNTLYLQMNSLRAEDTAVYYCAKLGYSRSSKDFYYGMDVWGQGTTVTVSS
VL: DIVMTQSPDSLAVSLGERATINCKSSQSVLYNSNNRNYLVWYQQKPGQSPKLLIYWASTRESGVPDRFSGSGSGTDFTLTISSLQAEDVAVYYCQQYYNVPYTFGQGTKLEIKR
notes: human IgG4
100 nM Ag Bound [1]: -1 RU | 100 nM Ag Bound [2]: 1 RU | binding result [2]: no binding (tested: 100 nM) | 100 nM Ag Bound [3]: -1 RU | 100 nM Ag Bound [4]: 0 RU

B6: H4H12858P (antibody, human IgG4 S228P, kappa, V domains shown)
VH: EVQLVESGGDLVQPGGSLRLSCTASGFIFRNYAMNWVRQAPGKGLEWLSGILGSNDNTYYVDSVKGRFTISRDNSRNTLYLQMNSLRAEDSAVYYCAKGDAGGFDYWGQGTLVTVSS
VL: DVVMTQSPLSLPVILGQPASISCRSSQSLVSSDGNTYLNWFQQRPGQSPRRLIYKVSNRDSGVPDRFSGSGSGTDFTLKISRVEAEDVGAYYCMQGSYWPPTFGQGTKLEIKR
notes: human IgG4; also called REGN9433
100 nM Ag Bound [1]: -1 RU | 100 nM Ag Bound [2]: 1 RU | 100 nM Ag Bound [3]: 0 RU | 100 nM Ag Bound [4]: 1 RU | binding result [4]: no binding (tested: 100 nM)

B8: H4H12899P (antibody, human IgG4 S228P, kappa, V domains shown)
VH: QVQLVESGGDLVKPGGSLRLSCATSGFTFSDFYMTWIRQAPGKGLEWISYISNSGSIVKYADSVKGRFTISRDNAKNSLYLQMNSLRAEDTAIYYCARFYGDRWGQGTLVTVSS
VL: DIQLTQSPSFLSASVGDRVTITCWASQGISTFLAWYQQKPGKAPKLLIYAASTLQSGVPSRFSGSGSGTDFTLTISSLQPEDFATYHCQQLNNYPWTFGQGTKVEIKR
notes: human IgG4
100 nM Ag Bound [1]: 0 RU | 100 nM Ag Bound [2]: 0 RU | binding result [2]: no binding (tested: 100 nM) | 100 nM Ag Bound [3]: -1 RU | 100 nM Ag Bound [4]: 1 RU

B9: H4H12900P (antibody, human IgG4 S228P, kappa, V domains shown)
VH: QVQLVESGGGLVKPGGSLRLSCEASGFTFNDFYMTWIRQAPGKGLEWIAYISKSGDKMRYADSVKGRFSTSRDNAKNSLSLQMNSLRAEDTAVYYCARFYGDIWGQGTLVTVSS
VL: B8 VL with G28D, T31S, A34V, K45N, T53A, D70E, T85S, H87Y, Q89E
notes: human IgG4
100 nM Ag Bound [1]: 1 RU | 100 nM Ag Bound [2]: 0 RU | binding result [2]: no binding (tested: 100 nM) | 100 nM Ag Bound [3]: -1 RU | 100 nM Ag Bound [4]: 2 RU

B10: H4H12884P (antibody, human IgG4 S228P, kappa, V domains shown)
VH: QVQLQESGPGLVKPSQTLSLTCTVSGGSISSGGYYWSWIRQHPGKGLEWIGFIYYSGKTYYNPSLKSRLTISVDTSKSQFSLKLRSVTAADTAVYYCARLGYTNSAGWFDPWGQGTLVTVSS
VL: DIQMTQSPSSLSASVGDRVTITCRASQSISSYLNWYQQKPGKAPNLLIYAASSLQSGVPSRFSGSGSGTDFTLTISSLQPEDLATYYCQQSYTTPFTFGPGTKVDIKR
notes: human IgG4
100 nM Ag Bound [1]: 2 RU | IC50; IL-7 50 pM; NK92/hIL7R/STAT3-luc [5]: 2.3e-09 M | Max Inhibition (%); IL-2 30 pM; NK92/hIL7R/STAT3-luc [5]: 13% | Max Inhibition (%); IL-4 250 pM; Ramos.2G6.4C10/STAT3-luc [5]: 19% | Max Inhibition (%); IL-7 50 pM; NK92/hIL7R/STAT3-luc [5]: 34% | 100 nM Ag Bound [2]: 51 RU | Kd [2]: 11.8 nM | koff [2]: 0.00196 s⁻¹ | kon [2]: 166000 M⁻¹ s⁻¹ | t½ [2]: 6 min | 100 nM Ag Bound [3]: 1 RU | binding result [3]: no binding (tested: 100 nM) | 100 nM Ag Bound [4]: 32 RU | Kd [4]: 32.9 nM | koff [4]: 0.00442 s⁻¹ | kon [4]: 134000 M⁻¹ s⁻¹ | t½ [4]: 2.6 min

Now from value to binder:

100 nM Ag Bound [1]: 3 RU | 100 nM Ag Bound [2]: 8 RU | binding result [2]: no binding (tested: 100 nM) | 100 nM Ag Bound [3]: 5 RU | binding result [3]: no binding (tested: 100 nM) | 100 nM Ag Bound [4]: 4 RU
B3: H4H13545P2 (antibody, human IgG4 S228P, kappa, V domains shown)
VH: QVQLQQSGPGLVKPSQTLSLTCDISGDSVSSNIATWNWIRQSPSRGLEWLGRTYYRSKWYKDYAVSVKSRITINPDTSKNQFSLQVNSVTPEDTAVYYCARMTGPRYYFEYWGQGTLVTVSS
VL: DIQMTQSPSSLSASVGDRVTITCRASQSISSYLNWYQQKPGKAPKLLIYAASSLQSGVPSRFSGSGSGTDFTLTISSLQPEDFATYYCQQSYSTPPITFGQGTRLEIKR
notes: human IgG4

100 nM Ag Bound [1]: 4 RU | 100 nM Ag Bound [2]: 24 RU | Kd [2]: 57.8 nM | koff [2]: 0.00207 s⁻¹ | kon [2]: 35800 M⁻¹ s⁻¹ | t½ [2]: 6 min | 100 nM Ag Bound [3]: 5 RU | binding result [3]: no binding (tested: 100 nM) | 100 nM Ag Bound [4]: 22 RU | Kd [4]: 225 nM | koff [4]: 0.0105 s⁻¹ | kon [4]: 46400 M⁻¹ s⁻¹ | t½ [4]: 1.1 min
B4: H4H13544P2 (antibody, human IgG4 S228P, kappa, V domains shown)
VH: QLQLQESGPGLVKPSETLSLTCTVSGGSISIKNYYWGWIRQPPGKGLEWIGSIYYSGTTYYNPSLKSRVTISVDTSKNQFSLKLSSVTAADTAVYHCARHGYSYGHGWFDPWGQGTLVTVSS
VL: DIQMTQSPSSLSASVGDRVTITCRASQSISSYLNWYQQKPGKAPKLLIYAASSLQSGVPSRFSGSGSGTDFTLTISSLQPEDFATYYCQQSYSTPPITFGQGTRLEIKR
notes: human IgG4

100 nM Ag Bound [1]: 7 RU | 100 nM Ag Bound [2]: 2 RU | binding result [2]: no binding (tested: 100 nM) | 100 nM Ag Bound [3]: 10 RU | binding result [3]: no binding (tested: 100 nM) | 100 nM Ag Bound [4]: 2 RU
B5: H4H13541P (antibody, human IgG4 S228P, kappa, V domains shown)
VH: EVQLVESGGGVVRPGGSLRLSCAASGFIFDDYDMSWVRQPPGRGLEWVSGIDWFGGTRGYADSMKGRFTISRDNAKNSLYLQMNSLRVEDTAFYYCARGGAIVGAVTPFDYWGQGTLVTVSS
VL: DIQMTQSPSSLSASVGNRVTLSCRASQSINTYLSWYQQRPGKAPKLLIYAASSLQSGVPSRFSGSGAGTDFTLTISSLQPEDFATYYCQQSYSAPLTFGGGTKVEIKR
notes: human IgG4

100 nM Ag Bound [1]: 6 RU | 100 nM Ag Bound [2]: 2 RU | binding result [2]: no binding (tested: 100 nM) | 100 nM Ag Bound [3]: 6 RU | binding result [3]: no binding (tested: 100 nM) | 100 nM Ag Bound [4]: 2 RU
B7: H4H13538P (antibody, human IgG4 S228P, kappa, V domains shown)
VH: EVQLVESGGGLVQPGGSLGLSCAASGFTFSNYAMSWVRQAPGKGLEWVSAVSGGGGGTYYADSVKGRFTISRDNSKNTVLLQMNSLRAEDTAVYYCARGRTGGLDYWGPGTLVTVSS
VL: B6 VL with L15F, S31D, F41L, K55E, K79T, A90I, S97T, Y98R, Q105G, L109V
notes: human IgG4

Binding Ratio (Sample over unstained MFIs) [6]: 1 | Raw MFI [6]: 175 MFI | Binding Ratio (Sample over unstained MFIs) [7]: 12 | Raw MFI [7]: 1850 MFI | Binding Ratio (Sample over unstained MFIs) [8]: 2 | Raw MFI [8]: 179 MFI
B11: H4H12926P2 (antibody, human IgG4 S228P, kappa, V domains shown)
VH: QVQLQQSGPGLVKPSQTLSLTCAISGDSVSSNIAAWNWIRLSPSRGLEWLGRTFFRSTWFYDYSLSVKGRITINPDTSKNQFSLHLNSVTPEDAAVYYCARTGRRWSLDYWGQGTLVTVSS
VL: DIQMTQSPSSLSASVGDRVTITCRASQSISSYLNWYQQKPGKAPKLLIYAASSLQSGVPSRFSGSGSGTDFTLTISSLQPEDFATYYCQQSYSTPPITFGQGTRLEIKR
notes: fully human anti-IL2Rg antibody, human IgG4
